Data: patent US20250340635A1 (HEFEI TG IMMUNOPHARMA, published 2025)

B1: human-murine chimeric 10D10 antibody (antibody, human IgG1, kappa, L234A L235A)
heavy: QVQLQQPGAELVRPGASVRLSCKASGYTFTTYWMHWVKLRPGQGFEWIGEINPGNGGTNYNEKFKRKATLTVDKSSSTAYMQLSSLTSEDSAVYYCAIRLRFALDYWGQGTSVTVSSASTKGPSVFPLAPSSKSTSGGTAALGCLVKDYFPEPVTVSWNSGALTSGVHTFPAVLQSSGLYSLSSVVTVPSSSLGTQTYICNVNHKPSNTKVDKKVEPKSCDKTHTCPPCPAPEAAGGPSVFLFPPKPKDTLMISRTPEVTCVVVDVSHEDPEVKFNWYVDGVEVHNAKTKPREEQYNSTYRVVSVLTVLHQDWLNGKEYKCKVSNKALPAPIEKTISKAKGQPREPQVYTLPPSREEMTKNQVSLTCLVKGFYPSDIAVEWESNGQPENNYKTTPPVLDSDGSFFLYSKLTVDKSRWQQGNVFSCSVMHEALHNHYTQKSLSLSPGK
light: DIQMTQTTSSLSASLGDRVTISCRASQDVRNFLNWFQQKPDGTVKLLIYFTSRLHSGVPSRFSGSGSGTDYSLTISNLEQEDIATYFCQQGNTLPPTFGGGTKLEIKRTVAAPSVFIFPPSDEQLKSGTASVVCLLNNFYPREAKVQWKVDNALQSGNSQESVTEQDSKDSTYSLSSTLTLSKADYEKHKVYACEVTHQGLSSPVTKSFNRGEC
notes: Human IgG1 LALA constant region, made in ExpiCHO-S cells; also called 10D10-hIgG1LALA
B2: human-murine chimeric 3B9 antibody (antibody, human IgG1, kappa, L234A L235A)
heavy: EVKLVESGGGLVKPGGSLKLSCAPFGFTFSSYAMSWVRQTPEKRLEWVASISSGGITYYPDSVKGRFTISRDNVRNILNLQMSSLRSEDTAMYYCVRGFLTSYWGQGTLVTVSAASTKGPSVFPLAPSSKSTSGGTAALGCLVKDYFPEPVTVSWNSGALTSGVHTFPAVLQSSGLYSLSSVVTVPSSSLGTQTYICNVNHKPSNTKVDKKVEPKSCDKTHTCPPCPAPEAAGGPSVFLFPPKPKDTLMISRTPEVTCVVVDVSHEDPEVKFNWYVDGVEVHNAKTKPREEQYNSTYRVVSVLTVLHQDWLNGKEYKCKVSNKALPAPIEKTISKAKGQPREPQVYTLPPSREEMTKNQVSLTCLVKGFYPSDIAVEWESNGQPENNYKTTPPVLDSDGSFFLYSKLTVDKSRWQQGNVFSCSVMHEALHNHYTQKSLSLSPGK
light: DVVMTQTPLTLSVTIGQPASISCKSSQSLLNSDGKTYLNWLLQRPGQSPKRLISLVSKLDSGVPDRFTGSGSGTDFTLKISRVEAEDLGVYYCWQGTHFWTFGGGTKLEIKRTVAAPSVFIFPPSDEQLKSGTASVVCLLNNFYPREAKVQWKVDNALQSGNSQESVTEQDSKDSTYSLSSTLTLSKADYEKHKVYACEVTHQGLSSPVTKSFNRGEC
notes: Human IgG1 LALA constant region, made in ExpiCHO-S cells; also called 3B9-hIgG1LALA
B3: murine 10D10 antibody (antibody, mouse IgG2a, kappa)
heavy: QVQLQQPGAELVRPGASVRLSCKASGYTFTTYWMHWVKLRPGQGFEWIGEINPGNGGTNYNEKFKRKATLTVDKSSSTAYMQLSSLTSEDSAVYYCAIRLRFALDYWGQGTSVTVSSAKTTAPSVYPLAPVCGDTTGSSVTLGCLVKGYFPEPVTLTWNSGSLSSGVHTFPAVLQSDLYTLSSSVTVTSSTWPSQSITCNVAHPASSTKVDKKIEPRGPTIKPCPPCKCPAPNLLGGPSVFIFPPKIKDVLMISLSPIVTCVVVDVSEDDPDVQISWFVNNVEVHTAQTQTHREDYNSTLRVVSALPIQHQDWMSGKEFKCKVNNKDLPAPIERTISKPKGSVRAPQVYVLPPPEEEMTKKQVTLTCMVTDFMPEDIYVEWTNNGKTELNYKNTEPVLDSDGSYFMYSKLRVEKKNWVERNSYSCSVVHEGLHNHHTTKSFSRTPGK
light: DIQMTQTTSSLSASLGDRVTISCRASQDVRNFLNWFQQKPDGTVKLLIYFTSRLHSGVPSRFSGSGSGTDYSLTISNLEQEDIATYFCQQGNTLPPTFGGGTKLEIKRADAAPTVSIFPPSSEQLTSGGASVVCFLNNFYPKDINVKWKIDGSERQNGVLNSWTDQDSKDSTYSMSSTLTLTKDEYERHNSYTCEATHKTSTSPIVKSFNRNEC
notes: Murine monoclonal antibody from a hybridoma
B4: murine 3B9 antibody (antibody, mouse IgG2a, kappa)
heavy: EVKLVESGGGLVKPGGSLKLSCAPFGFTFSSYAMSWVRQTPEKRLEWVASISSGGITYYPDSVKGRFTISRDNVRNILNLQMSSLRSEDTAMYYCVRGFLTSYWGQGTLVTVSAAKTTAPSVYPLAPVCGDTTGSSVTLGCLVKGYFPEPVTLTWNSGSLSSGVHTFPAVLQSDLYTLSSSVTVTSSTWPSQSITCNVAHPASSTKVDKKIEPRGPTIKPCPPCKCPAPNLLGGPSVFIFPPKIKDVLMISLSPIVTCVVVDVSEDDPDVQISWFVNNVEVHTAQTQTHREDYNSTLRVVSALPIQHQDWMSGKEFKCKVNNKDLPAPIERTISKPKGSVRAPQVYVLPPPEEEMTKKQVTLTCMVTDFMPEDIYVEWTNNGKTELNYKNTEPVLDSDGSYFMYSKLRVEKKNWVERNSYSCSVVHEGLHNHHTTKSFSRTPGK
light: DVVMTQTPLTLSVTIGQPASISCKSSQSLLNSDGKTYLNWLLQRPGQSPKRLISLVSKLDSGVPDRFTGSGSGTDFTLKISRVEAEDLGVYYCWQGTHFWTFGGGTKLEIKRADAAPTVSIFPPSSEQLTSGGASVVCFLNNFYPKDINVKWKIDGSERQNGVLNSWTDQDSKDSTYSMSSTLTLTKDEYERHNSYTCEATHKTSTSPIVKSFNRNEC
notes: as for B3
B5: murine 10E10 antibody (antibody, mouse IgG2a, kappa)
heavy: QVQLQQSGDDLVKPGASVKLSCKASGYTFTSYWINWIKQRPGQGLEWIGRVVPGSGRTYYNEIFKGKAILTVDSYSNTAYIQLRSVSSEDSAVYFCARVGGYWDYWGQGITLTVSSAKTTAPSVYPLAPVCGDTTGSSVTLGCLVKGYFPEPVTLTWNSGSLSSGVHTFPAVLQSDLYTLSSSVTVTSSTWPSQSITCNVAHPASSTKVDKKIEPRGPTIKPCPPCKCPAPNLLGGPSVFIFPPKIKDVLMISLSPIVTCVVVDVSEDDPDVQISWFVNNVEVHTAQTQTHREDYNSTLRVVSALPIQHQDWMSGKEFKCKVNNKDLPAPIERTISKPKGSVRAPQVYVLPPPEEEMTKKQVTLTCMVTDFMPEDIYVEWTNNGKTELNYKNTEPVLDSDGSYFMYSKLRVEKKNWVERNSYSCSVVHEGLHNHHTTKSFSRTPGK
light: QIVLSQSPAILSASPGEKVTMACRASSSVNYIHWYQQRPGSSPKPWIYATSSLASGVPARFSGSGSGTSYSLTISRVEAEDAATYYCQQWSSNPYTFGGGTKLEMKRADAAPTVSIFPPSSEQLTSGGASVVCFLNNFYPKDINVKWKIDGSERQNGVLNSWTDQDSKDSTYSMSSTLTLTKDEYERHNSYTCEATHKTSTSPIVKSFNRNEC
notes: as for B3
B6: human-murine chimeric 10E10 antibody (antibody, human IgG1, kappa, L234A L235A)
heavy: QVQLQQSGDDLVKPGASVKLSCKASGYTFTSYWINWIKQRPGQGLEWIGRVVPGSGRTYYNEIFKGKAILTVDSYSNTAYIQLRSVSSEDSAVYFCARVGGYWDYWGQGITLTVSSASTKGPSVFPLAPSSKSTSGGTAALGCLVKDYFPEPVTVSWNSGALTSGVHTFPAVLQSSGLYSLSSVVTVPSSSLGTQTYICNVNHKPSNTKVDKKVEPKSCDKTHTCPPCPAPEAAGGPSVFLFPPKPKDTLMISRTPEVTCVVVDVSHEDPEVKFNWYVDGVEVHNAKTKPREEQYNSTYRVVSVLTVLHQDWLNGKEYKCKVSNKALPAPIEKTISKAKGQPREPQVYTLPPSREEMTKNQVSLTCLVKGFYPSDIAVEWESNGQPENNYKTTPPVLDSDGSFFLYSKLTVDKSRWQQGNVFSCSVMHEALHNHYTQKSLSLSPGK
light: QIVLSQSPAILSASPGEKVTMACRASSSVNYIHWYQQRPGSSPKPWIYATSSLASGVPARFSGSGSGTSYSLTISRVEAEDAATYYCQQWSSNPYTFGGGTKLEMKRTVAAPSVFIFPPSDEQLKSGTASVVCLLNNFYPREAKVQWKVDNALQSGNSQESVTEQDSKDSTYSLSSTLTLSKADYEKHKVYACEVTHQGLSSPVTKSFNRGEC
notes: Human IgG1 LALA constant region, made in ExpiCHO-S cells; also called 10E10-hIgG1LALA
B7: humanized 10D10 antibody (antibody, human IgG1, kappa, L234A L235A, V domains shown)
VH: QVQLVQSGAEVKKPGASVKVSCKASGYTFTTYWMHWVKQAPGQGLEWIGEINPGNGGTNYNEKFKRRATMTVDKSISTAYMELSRLRSDDTAVYYCAIRLRFALDYWGQGTLVTVSS
VL: DIQMTQSPSSLSASVGDRVTITCRASQDVRNFLNWFQQKPGKAPKLLIYFTSRLHSGVPSRFSGSGSGTDYTFTISSLQPEDIATYFCQQGNTLPPTFGGGTKLEIKR
notes: human IgG1 LALA; also called h10D10-hIgG1LALA; humanized NKp46 antibody

molecular target: T1, NKp46 on human peripheral blood mononuclear cells (human, UniProt O76036 22-304); test: flow cytometry on PBMCs
T1 construct: also called human PBMCs
T1 sequence (O76036 22-304 Q82K limits assumed): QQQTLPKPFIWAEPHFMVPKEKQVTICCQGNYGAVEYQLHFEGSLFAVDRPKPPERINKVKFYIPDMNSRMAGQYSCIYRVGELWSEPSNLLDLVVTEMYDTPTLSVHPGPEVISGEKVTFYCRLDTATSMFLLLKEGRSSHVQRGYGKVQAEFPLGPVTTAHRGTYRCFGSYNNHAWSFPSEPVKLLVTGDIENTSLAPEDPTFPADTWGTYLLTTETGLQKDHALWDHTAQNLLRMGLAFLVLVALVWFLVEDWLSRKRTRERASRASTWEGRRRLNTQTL
Protocol: (§1) The binding characteristics of the two human-murine chimeric NKp46 antibodies (i.e., human-murine chimeric 10D10 antibody and human-murine chimeric 3B9 antibody) prepared in Example 4 were detected using the flow cytometry assay. Human-murine chimeric NKp46 antibodies were added to human and cynomolgus monkey peripheral blood mononuclear cells. The signal intensity after antibody addition was used to determine the binding characteristics of the antibody to PBMCs. The specific steps were as follows:
(§2) Human and cynomolgus monkey peripheral blood mononuclear cells (PBMCs) were diluted to 2×10⁶ cells/mL with PBS and added to 1.5 mL EP tube at 100 μL/tube. Goat serum was added at 10 μL/tube and was blocked at 4° C. for 30 min. NKp46 antibodies at different concentrations gradients and the positive control antibody (hIgG1 LALA) were added and incubated at 4° C. for 30 min. The EP tube was added with 1 mL of PBS, and centrifuged at 3500 rpm at 4° C. for 5 min. The supernatant was discarded and the pellet was washed once more with PBS. After centrifugation, the supernatant was discarded, and the cells were resuspended with 100 IL/tube of PBS, and 0.1 μL/tube of Alexa-647 labeled rat anti-human IgG-Fc secondary antibody (Biolegend) and 0.5 μL/tube BV510-labeled CD16 antibody were added, and incubated at 4° C. in the dark for 30 min. The pellet was washed twice with PBS and the supernatant was discarded after centrifugation. The cells were resuspended with 200 μL/tube of PBS and detected by flow cytometry.

binding result	Binder
binds	B1
binds	B2

molecular target: T2, NKp46 on cynomolgus monkey peripheral blood mononuclear cells (cynomolgus monkey, UniProt Q95JB9 22-306); test: flow cytometry on PBMCs
T2 construct: whole, on cells; also called cynomolgus monkey PBMCs
T2 sequence (Q95JB9 22-306): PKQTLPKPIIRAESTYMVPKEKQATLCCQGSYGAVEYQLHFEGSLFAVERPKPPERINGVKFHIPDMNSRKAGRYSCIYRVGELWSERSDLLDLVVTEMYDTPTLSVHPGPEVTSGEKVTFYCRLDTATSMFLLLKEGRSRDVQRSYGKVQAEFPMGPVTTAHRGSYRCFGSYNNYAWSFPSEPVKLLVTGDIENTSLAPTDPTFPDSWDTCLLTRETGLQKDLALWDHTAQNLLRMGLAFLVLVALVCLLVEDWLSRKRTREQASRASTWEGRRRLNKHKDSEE
Protocol: as §1, §2

binding result	Binder
binds	B1
binds	B2

molecular target: T3, cynomolgus monkey-His fusion protein (cynomolgus monkey, UniProt Q95JB9 22-257); test: ELISA, NKp46-His coated, anti-mouse HRP
T3 construct: extracellular domain; also called cynomolgus monkey NKp46; monkey NKp46; not shown: His tag
T3 sequence (Q95JB9 22-257): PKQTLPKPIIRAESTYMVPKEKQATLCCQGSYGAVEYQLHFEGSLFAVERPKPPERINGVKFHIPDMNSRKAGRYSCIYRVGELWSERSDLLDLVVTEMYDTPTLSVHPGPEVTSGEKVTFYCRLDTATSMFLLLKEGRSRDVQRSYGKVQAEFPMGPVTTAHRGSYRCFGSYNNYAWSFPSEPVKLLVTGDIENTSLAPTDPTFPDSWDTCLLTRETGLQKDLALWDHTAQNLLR
Description: (§3) The binding characteristics of the three NKp46 antibodies (10D10 antibody, 10E10 antibody, and 3B9 antibody) obtained in Example 1 were detected using the ELISA assay. The NKp46 extracellular region His tag fusion protein (NKp46-His) was coated into a 96-well plate. The signal intensity after antibody addition was used to determine the binding characteristics of the antibody to NKp46. The specific steps were as follows:
(§4) The human NKp46-His fusion protein (purchased from Acro) and cynomolgus monkey-His fusion protein (purchased from Acro) were diluted to 1 μg/mL with PBS buffer, added to a 96-well plate at 100 μL/well, and left overnight at 4° C. The PBS buffer solution was removed from the 96-well plate. The plate was washed 6 times with PBST (pH 7.2, PBS containing 0.1% Tween 20) buffer solution. PBS/10% BSA was added at 200 μL/well and incubated at 37° C. for 2 hours for blocking. The blocking solution was removed. The plate was washed 6 times with PBST. NKp46 antibody to be tested diluted to an appropriate concentration with PBST/0.05% BSA was added at 100 μL/well, and incubated for 1 h at 37° C. The reaction system was removed. The plate was washed 6 times with PBST. HRP (horseradish peroxidase)-labeled anti-mouse secondary antibody diluted with PBST/0.05% BSA was added at 100 μL/well and incubated for 1 h at 37° C. The plate was washed 6 times with PBST, and TMB (tetramethylbenzidine) was added at 80 μL/well. After 3 min of incubation at room temperature, 4M sulfuric acid was added at 80 μL/well to terminate the reaction. The absorbance at […] was read with a microplate reader.

binding result	Binder
binds	B3
binds	B4
binds	B5

molecular target: T4, human NKp46-His fusion protein (human, UniProt O76036 22-258); test: ELISA, NKp46-His coated, anti-mouse HRP
T4 construct: Bought from Acro; also called NKp46 extracellular region His tag fusion protein; not shown: His tag
T4 sequence (O76036 22-258 Q82K): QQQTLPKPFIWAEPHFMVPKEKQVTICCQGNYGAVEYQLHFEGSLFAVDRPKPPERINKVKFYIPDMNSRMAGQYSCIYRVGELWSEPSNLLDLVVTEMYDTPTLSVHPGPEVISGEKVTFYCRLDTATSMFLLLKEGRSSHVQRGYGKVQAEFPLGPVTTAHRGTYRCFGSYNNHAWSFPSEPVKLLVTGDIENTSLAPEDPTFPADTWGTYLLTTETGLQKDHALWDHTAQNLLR
Description: as §3, §4

binding result	Binder
binds	B3
binds	B4
binds	B5

molecular target: T3, cynomolgus monkey-His fusion protein; test: ELISA, NKp46-His coated, anti-human HRP

binding result	Binder
binds	B1
binds	B6
binds	B7
binds	B2

molecular target: T4, human NKp46-His fusion protein; test: ELISA, NKp46-His coated, anti-human HRP

binding result	Binder
binds	B1
binds	B6
binds	B7
binds	B2

molecular target: T1, NKp46 on human peripheral blood …; test: flow cytometry on human PBMCs
Protocol: The binding characteristics of the three NKp46 antibodies (10D10 antibody, 10E10 antibody, and 3B9 antibody) obtained in Example 1 were detected using the flow cytometry assay. Murine NKp46 antibodies were added to human peripheral blood mononuclear cells. The signal intensity after antibody addition was used to determine the binding characteristics of the antibody to PBMCs. The specific steps were as follows:
Human peripheral blood mononuclear cells (PBMCs) were diluted to 2×10⁶ cells/mL with PBS and added to a 1.5 mL EP tube at 100 μL/tube. Goat serum was added at […] and was blocked at 4° C. for 30 min. NKp46 antibodies at different concentrations gradients were added and incubated at 4° C. for 30 min. The EP tube was added with 1 mL of PBS, and centrifuged at 3500 rpm at 4° C. for 5 min. The supernatant was discarded and the pellet was washed once more with PBS. After centrifugation, the supernatant was discarded, and the cells were resuspended with 100 μL/tube of PBS, and 0.1 μL/tube of Alexa-647-labeled goat anti-mouse secondary antibody (Biolegend) and 0.5 μL/tube of FITC-labeled CD3 antibody were added, and incubated at 4° C. in the dark for 30 min. The pellet was washed twice with PBS and the supernatant was discarded after centrifugation. The cells were resuspended with 200 μL/tube of PBS and detected by flow cytometry.

binding result	Binder
binds	B3
binds	B4
binds	B5
